Patent publication US20240321457A1 (University of California, published 2024)

B1: BRCA1 S1655F (enzyme, human, UniProt P38398 1-1863, looked up)
chain: MDLSALRVEEVQNVINAMQKILECPICLELIKEPVSTKCDHIFCKFCMLKLLNQKKGPSQCPLCKNDITKRSLQESTRFSQLVEELLKIICAFQLDTGLEYANSYNFAKKENNSPEHLKDEVSIIQSMGYRNRAKRLLQSEPENPSLQETSLSVQLSNLGTVRTLRTKQRIQPQKTSVYIELGSDSSEDTVNKATYCSVGDQELLQITPQGTRDEISLDSAKKAACEFSETDVTNTEHHQPSNNDLNTTEKRAAERHPEKYQGSSVSNLHVEPCGTNTHASSLQHENSSLLLTKDRMNVEKAEFCNKSKQPGLARSQHNRWAGSKETCNDRRTPSTEKKVDLNADPLCERKEWNKQKLPCSENPRDTEDVPWITLNSSIQKVNEWFSRSDELLGSDDSHDGESESNAKVADVLDVLNEVDEYSGSSEKIDLLASDPHEALICKSERVHSKSVESNIEDKIFGKTYRKKASLPNLSHVTENLIIGAFVTEPQIIQERPLTNKLKRKRRPTSGLHPEDFIKKADLAVQKTPEMINQGTNQTEQNGQVMNITNSGHENKTKGDSIQNEKNPNPIESLEKESAFKTKAEPISSSISNMELELNIHNSKAPKKNRLRRKSSTRHIHALELVVSRNLSPPNCTELQIDSCSSSEEIKKKKYNQMPVRHSRNLQLMEGKEPATGAKKSNKPNEQTSKRHDSDTFPELKLTNAPGSFTKCSNTSELKEFVNPSLPREEKEEKLETVKVSNNAEDPKDLMLSGERVLQTERSVESSSISLVPGTDYGTQESISLLEVSTLGKAKTEPNKCVSQCAAFENPKGLIHGCSKDNRNDTEGFKYPLGHEVNHSRETSIEMEESELDAQYLQNTFKVSKRQSFAPFSNPGNAEEECATFSAHSGSLKKQSPKVTFECEQKEENQGKNESNIKPVQTVNITAGFPVVGQKDKPVDNAKCSIKGGSRFCLSSQFRGNETGLITPNKHGLLQNPYRIPPLFPIKSFVKTKCKKNLLEENFEEHSMSPEREMGNENIPSTVSTISRNNIRENVFKEASSSNINEVGSSTNEVGSSINEIGSSDENIQAELGRNRGPKLNAMLRLGVLQPEVYKQSLPGSNCKHPEIKKQEYEEVVQTVNTDFSPYLISDNLEQPMGSSHASQVCSETPDDLLDDGEIKEDTSFAENDIKESSAVFSKSVQKGELSRSPSPFTHTHLAQGYRRGAKKLESSEENLSSEDEELPCFQHLLFGKVNNIPSQSTRHSTVATECLSKNTEENLLSLKNSLNDCSNQVILAKASQEHHLSEETKCSASLFSSQCSELEDLTANTNTQDPFLIGSSKQMRHQSESQGVGLSDKELVSDDEERGTGLEENNQEEQSMDSNLGEAASGCESETSVSEDCSGLSSQSDILTTQQRDTMQHNLIKLQQEMAELEAVLEQHGSQPSNSYPSIISDSSALEDLRNPEQSTSEKAVLTSQKSSEYPISQNPEGLSADKFEVSADSSTSKNKEPGVERSSPSKCPSLDDRWYMHSCSGSLQNRNYPSQEELIKVVDVEEQQLEESGPHDLTETSYLPRQDLEGTPYLESGISLFSDDPESDPSEDRAPESARVGNIPSSTSALKVPQLKVAESAQSPAAAHTTDTAGYNAMEESVSREKPELTASTERVNKRMSMVVFGLTPEEFMLVYKFARKHHITLTNLITEETTHVVMKTDAEFVCERTLKYFLGIAGGKWVVSYFWVTQSIKERKMLNEHDFEVRGDVVNGRNHQGPKRARESQDRKIFRGLEICCYGPFTNMPTDQLEWMVQLCGASVVKELSSFTLGTGVHPIVVVQPDAWTEDNGFHAIGQMCEAPVVTREWVLDSVALYQCQELDTYLIPQIPHSHY
notes: 3xFLAG-tagged bait; also called BRCT domain mutant S1655F; 51655F
B2: BRIP1 (enzyme, human, UniProt Q9BX63 1-1249, looked up)
chain: MSSMWSEYTIGGVKIYFPYKAYPSQLAMMNSILRGLNSKQHCLLESPTGSGKSLALLCSALAWQQSLSGKPADEGVSEKAEVQLSCCCACHSKDFTNNDMNQGTSRHFNYPSTPPSERNGTSSTCQDSPEKTTLAAKLSAKKQASIYRDENDDFQVEKKRIRPLETTQQIRKRHCFGTEVHNLDAKVDSGKTVKLNSPLEKINSFSPQKPPGHCSRCCCSTKQGNSQESSNTIKKDHTGKSKIPKIYFGTRTHKQIAQITRELRRTAYSGVPMTILSSRDHTCVHPEVVGNFNRNEKCMELLDGKNGKSCYFYHGVHKISDQHTLQTFQGMCKAWDIEELVSLGKKLKACPYYTARELIQDADIIFCPYNYLLDAQIRESMDLNLKEQVVILDEAHNIEDCARESASYSVTEVQLRFARDELDSMVNNNIRKKDHEPLRAVCCSLINWLEANAEYLVERDYESACKIWSGNEMLLTLHKMGITTATFPILQGHFSAVLQKEEKISPIYGKEEAREVPVISASTQIMLKGLFMVLDYLFRQNSRFADDYKIAIQQTYSWTNQIDISDKNGLLVLPKNKKRSRQKTAVHVLNFWCLNPAVAFSDINGKVQTIVLTSGTLSPMKSFSSELGVTFTIQLEANHIIKNSQVWVGTIGSGPKGRNLCATFQNTETFEFQDEVGALLLSVCQTVSQGILCFLPSYKLLEKLKERWLSTGLWHNLELVKTVIVEPQGGEKTNFDELLQVYYDAIKYKGEKDGALLVAVCRGKVSEGLDFSDDNARAVITIGIPFPNVKDLQVELKRQYNDHHSKLRGLLPGRQWYEIQAYRALNQALGRCIRHRNDWGALILVDDRFRNNPSRYISGLSKWVRQQIQHHSTFESALESLAEFSKKHQKVLNVSIKDRTNIQDNESTLEVTSLKYSTSPYLLEAASHLSPENFVEDEAKICVQELQCPKIITKNSPLPSSIISRKEKNDPVFLEEAGKAEKIVISRSTSPTFNKQTKRVSWSSFNSLGQYFTGKIPKATPELGSSENSASSPPRFKTEKMESKTVLPFTDKCESSNLTVNTSFGSCPQSETIISSLKIDATLTRKNHSEHPLCSEEALDPDIELSLVSEEDKQSTSNRDFETEAEDESIYFTPELYDPEDTDEEKNDLAETDRGNRLANNSDCILAKDLFEIRTIKEVDSAREVKAEDCIDTKLNGILHIEESKIDDIDGNVKTTWINELELGKTHEIEIKNFKPSPSKNKGMFPGFK
notes: endogenous prey from cell lysate
B3: RBBP8 (other, human, UniProt Q99708 1-897, looked up)
chain: MNISGSSCGSPNSADTSSDFKDLWTKLKECHDREVQGLQVKVTKLKQERILDAQRLEEFFTKNQQLREQQKVLHETIKVLEDRLRAGLCDRCAVTEEHMRKKQQEFENIRQQNLKLITELMNERNTLQEENKKLSEQLQQKIENDQQHQAAELECEEDVIPDSPITAFSFSGVNRLRRKENPHVRYIEQTHTKLEHSVCANEMRKVSKSSTHPQHNPNENEILVADTYDQSQSPMAKAHGTSSYTPDKSSFNLATVVAETLGLGVQEESETQGPMSPLGDELYHCLEGNHKKQPFEESTRNTEDSLRFSDSTSKTPPQEELPTRVSSPVFGATSSIKSGLDLNTSLSPSLLQPGKKKHLKTLPFSNTCISRLEKTRSKSEDSALFTHHSLGSEVNKIIIQSSNKQILINKNISESLGEQNRTEYGKDSNTDKHLEPLKSLGGRTSKRKKTEEESEHEVSCPQASFDKENAFPFPMDNQFSMNGDCVMDKPLDLSDRFSAIQRQEKSQGSETSKNKFRQVTLYEALKTIPKGFSSSRKASDGNCTLPKDSPGEPCSQECIILQPLNKCSPDNKPSLQIKEENAVFKIPLRPRESLETENVLDDIKSAGSHEPIKIQTRSDHGGCELASVLQLNPCRTGKIKSLQNNQDVSFENIQWSIDPGADLSQYKMDVTVIDTKDGSQSKLGGETVDMDCTLVSETVLLKMKKQEQKGEKSSNEERKMNDSLEDMFDRTTHEEYESCLADSFSQAADEEEELSTATKKLHTHGDKQDKVKQKAFVEPYFKGDERETSLQNFPHIEVVRKKEERRKLLGHTCKECEIYYADMPAEEREKKLASCSRHRFRYIPPNTPENFWEVGFPSTQTCMERGYIKEDLDPCPRPKRRQPYNAIFSPKGKEQKT
notes: as for B2
B4: BRCA1 5382insC (enzyme, human, UniProt P38398 1-1755, looked up)
chain: MDLSALRVEEVQNVINAMQKILECPICLELIKEPVSTKCDHIFCKFCMLKLLNQKKGPSQCPLCKNDITKRSLQESTRFSQLVEELLKIICAFQLDTGLEYANSYNFAKKENNSPEHLKDEVSIIQSMGYRNRAKRLLQSEPENPSLQETSLSVQLSNLGTVRTLRTKQRIQPQKTSVYIELGSDSSEDTVNKATYCSVGDQELLQITPQGTRDEISLDSAKKAACEFSETDVTNTEHHQPSNNDLNTTEKRAAERHPEKYQGSSVSNLHVEPCGTNTHASSLQHENSSLLLTKDRMNVEKAEFCNKSKQPGLARSQHNRWAGSKETCNDRRTPSTEKKVDLNADPLCERKEWNKQKLPCSENPRDTEDVPWITLNSSIQKVNEWFSRSDELLGSDDSHDGESESNAKVADVLDVLNEVDEYSGSSEKIDLLASDPHEALICKSERVHSKSVESNIEDKIFGKTYRKKASLPNLSHVTENLIIGAFVTEPQIIQERPLTNKLKRKRRPTSGLHPEDFIKKADLAVQKTPEMINQGTNQTEQNGQVMNITNSGHENKTKGDSIQNEKNPNPIESLEKESAFKTKAEPISSSISNMELELNIHNSKAPKKNRLRRKSSTRHIHALELVVSRNLSPPNCTELQIDSCSSSEEIKKKKYNQMPVRHSRNLQLMEGKEPATGAKKSNKPNEQTSKRHDSDTFPELKLTNAPGSFTKCSNTSELKEFVNPSLPREEKEEKLETVKVSNNAEDPKDLMLSGERVLQTERSVESSSISLVPGTDYGTQESISLLEVSTLGKAKTEPNKCVSQCAAFENPKGLIHGCSKDNRNDTEGFKYPLGHEVNHSRETSIEMEESELDAQYLQNTFKVSKRQSFAPFSNPGNAEEECATFSAHSGSLKKQSPKVTFECEQKEENQGKNESNIKPVQTVNITAGFPVVGQKDKPVDNAKCSIKGGSRFCLSSQFRGNETGLITPNKHGLLQNPYRIPPLFPIKSFVKTKCKKNLLEENFEEHSMSPEREMGNENIPSTVSTISRNNIRENVFKEASSSNINEVGSSTNEVGSSINEIGSSDENIQAELGRNRGPKLNAMLRLGVLQPEVYKQSLPGSNCKHPEIKKQEYEEVVQTVNTDFSPYLISDNLEQPMGSSHASQVCSETPDDLLDDGEIKEDTSFAENDIKESSAVFSKSVQKGELSRSPSPFTHTHLAQGYRRGAKKLESSEENLSSEDEELPCFQHLLFGKVNNIPSQSTRHSTVATECLSKNTEENLLSLKNSLNDCSNQVILAKASQEHHLSEETKCSASLFSSQCSELEDLTANTNTQDPFLIGSSKQMRHQSESQGVGLSDKELVSDDEERGTGLEENNQEEQSMDSNLGEAASGCESETSVSEDCSGLSSQSDILTTQQRDTMQHNLIKLQQEMAELEAVLEQHGSQPSNSYPSIISDSSALEDLRNPEQSTSEKAVLTSQKSSEYPISQNPEGLSADKFEVSADSSTSKNKEPGVERSSPSKCPSLDDRWYMHSCSGSLQNRNYPSQEELIKVVDVEEQQLEESGPHDLTETSYLPRQDLEGTPYLESGISLFSDDPESDPSEDRAPESARVGNIPSSTSALKVPQLKVAESAQSPAAAHTTDTAGYNAMEESVSREKPELTASTERVNKRMSMVVSGLTPEEFMLVYKFARKHHITLTNLITEETTHVVMKTDAEFVCERTLKYFLGIAGGKWVVSYFWVTQSIKERKMLNEHDFEVRGDVVNGRNHQGPKRARESPGQKDLQGARNLLLWALHQHAHRSTGMDGTAVWCFCGEGAFIIHPWHRCPPNCGCAARCLDRGQWLPCNWADV
notes: 3xFLAG-tagged bait; also called 5832insC

Key:
UBE2N = target: T1, UBE2N (human, UniProt P61088 1-152); assay: AP-MS, PPI score from compPASS and SAINTexpress, MDA-MB-231 cells
T1 construct: endogenous prey from cell lysate; also called UBC13
T1 sequence (looked up): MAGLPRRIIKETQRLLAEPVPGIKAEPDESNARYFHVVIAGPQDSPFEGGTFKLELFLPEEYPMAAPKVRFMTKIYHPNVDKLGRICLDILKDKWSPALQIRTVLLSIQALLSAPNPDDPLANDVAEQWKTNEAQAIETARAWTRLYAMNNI
Procedure: For AP-MS experiments, samples were resuspended in 15 μL of MS loading buffer (4% formic acid, 2% acetonitrile) and 2 μL were separated by a reversed-phase gradient over a nanoflow 75 μm ID×25 cm long picotip column packed with 1.9 μM C18 particles (Dr. Maisch). Peptides were directly injected over the course of a 75 min acquisition into a Q-Exactive Plus mass spectrometer (Thermo), or over the course of a 90 min acquisition into a Orbitrap Elite mass spectrometer. […] Peptides and proteins were filtered to 1% false discovery rate in MaxQuant, and identified proteins were then subjected to protein-protein interaction scoring.
All PPI scoring was performed separately for each cell line. For SAINTexpress, control samples in which bait protein was not induced by addition of doxycycline were used. For CompPASS, a stats table representing all WT baits was used. After scoring, the CompPASS WD and Z-score were normalized within a given bait for each cell line. The total list of candidate PPIs was filtered to those that met the following criteria: SAINTexpress BFDR=<0.05, WD percentile by bait>=0.95, and Z-score percentile by bait≤=0.95. PPIs passing all 3 of these criteria were considered to be high-confidence PPIs. To enable visualization and analysis of PPIs by confidence score among these 3 criteria, a PPI score was calculated: [(WD percentile by bait+Z-score percentile by bait)/2)+(1−BFDR)]/2.

BRCA1 S1655F = target: B1; assay: AP-MS, MSstats WT vs mutant, MDA-MB-231 cells
BRCA1 5382insC = target: B4; assay: AP-MS, MSstats WT vs mutant, MDA-MB-231 cells
BRCA1 M1775R = target: T2, BRCA1 M1775R (human, UniProt P38398 1-1863); assay: AP-MS, MSstats WT vs mutant, MDA-MB-231 cells
T2 construct: 3xFLAG-tagged bait; also called BRCT domain mutant M1775R

| Binder | PPI score (UBE2N) | binding result (BRCA1 S1655F) | binding result (BRCA1 5382insC) | binding result (BRCA1 M1775R) |
| --- | --- | --- | --- | --- |
| B1 | < 0.6 | – | – | – |
| B2 | – | no binding | no binding | no binding |
| B3 | – | no binding | no binding | no binding |
| B4 | < 0.6 | – | – | – |
